Measurements taken from patent US20200270335A1.

Target: LRP6 of Super TopFlash (STF, HEK293) cells (UniProt O75581)
Experiment: cell-based or functional assay

Sequence of LRP6 of Super TopFlash (STF, HEK293) cells (O75581 20-1613 limits assumed): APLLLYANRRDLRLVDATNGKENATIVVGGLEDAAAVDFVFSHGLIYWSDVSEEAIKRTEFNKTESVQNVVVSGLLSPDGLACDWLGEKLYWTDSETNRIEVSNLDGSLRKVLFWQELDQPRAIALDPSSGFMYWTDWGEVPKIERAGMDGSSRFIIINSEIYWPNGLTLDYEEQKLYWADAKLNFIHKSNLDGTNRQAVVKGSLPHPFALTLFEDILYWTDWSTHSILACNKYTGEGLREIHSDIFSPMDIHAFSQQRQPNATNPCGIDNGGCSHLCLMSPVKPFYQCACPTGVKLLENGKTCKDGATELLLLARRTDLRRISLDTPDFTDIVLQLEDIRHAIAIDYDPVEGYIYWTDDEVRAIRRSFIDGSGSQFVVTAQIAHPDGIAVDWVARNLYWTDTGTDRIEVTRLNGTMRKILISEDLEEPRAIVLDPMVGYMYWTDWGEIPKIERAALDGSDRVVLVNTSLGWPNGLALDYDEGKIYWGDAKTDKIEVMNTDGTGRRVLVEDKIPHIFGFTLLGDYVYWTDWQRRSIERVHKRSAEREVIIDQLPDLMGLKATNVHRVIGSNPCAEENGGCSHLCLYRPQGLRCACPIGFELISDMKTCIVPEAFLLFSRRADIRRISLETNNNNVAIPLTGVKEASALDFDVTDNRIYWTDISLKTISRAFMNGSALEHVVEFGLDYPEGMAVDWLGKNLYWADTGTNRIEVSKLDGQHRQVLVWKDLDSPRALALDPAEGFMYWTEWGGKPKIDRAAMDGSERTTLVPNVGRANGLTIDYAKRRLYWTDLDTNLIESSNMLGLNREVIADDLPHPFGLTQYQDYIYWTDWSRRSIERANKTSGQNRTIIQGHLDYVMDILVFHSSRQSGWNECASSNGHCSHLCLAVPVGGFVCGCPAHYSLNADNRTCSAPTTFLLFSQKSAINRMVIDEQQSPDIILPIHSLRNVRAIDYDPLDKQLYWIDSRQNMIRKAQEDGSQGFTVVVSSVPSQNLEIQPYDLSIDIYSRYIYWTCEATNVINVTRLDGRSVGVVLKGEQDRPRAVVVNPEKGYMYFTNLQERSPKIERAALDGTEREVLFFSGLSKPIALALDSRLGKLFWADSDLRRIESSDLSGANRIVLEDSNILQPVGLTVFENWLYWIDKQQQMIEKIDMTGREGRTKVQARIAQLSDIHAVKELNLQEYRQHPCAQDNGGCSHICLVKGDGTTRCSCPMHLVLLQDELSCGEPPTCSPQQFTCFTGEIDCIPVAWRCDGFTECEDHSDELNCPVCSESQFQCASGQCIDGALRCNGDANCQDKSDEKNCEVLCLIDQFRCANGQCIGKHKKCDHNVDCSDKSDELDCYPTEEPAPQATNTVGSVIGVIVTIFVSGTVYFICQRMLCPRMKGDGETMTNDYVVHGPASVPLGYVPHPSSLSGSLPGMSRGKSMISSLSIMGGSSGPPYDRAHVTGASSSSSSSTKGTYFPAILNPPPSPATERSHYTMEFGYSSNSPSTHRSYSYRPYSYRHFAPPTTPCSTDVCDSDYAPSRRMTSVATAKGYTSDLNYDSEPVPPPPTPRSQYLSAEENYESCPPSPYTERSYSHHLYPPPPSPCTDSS

activity in the Super Top Flash assay against the HSA-DKK2 C2 proteins: 10 fold
Substance: ACE 448 HSA-DKK2 full length (C1+C2) (from UniProt P02768 25-609; Q9UBU2 34-259) (ligand)
